According to US20240279618A1, “RECEPTOR TYROSINE KINASE AGONIST, COMPOSITION FOR CELL CULTURE MEDIUM, AND […] MAINTENANCE COMPOSITION” (SEKISUI CHEMICAL CO., LTD., priority 2021, published 2024):

What was measured:
[1] = tested on: human bone marrow-derived MSC; assay: MSC: evaluation of bone differentiation induction (Alizarin Red); assay type: cell-based; details: MSC after 3 passages with 20 ng/ml additive, 14 days induction
Procedure: A third passage was performed in a CellBIND® 24-well transparent multi-well plate, and then at a time of reaching 80% to 90% confluence, medium exchange was performed in MesenCult Stem Cell Osteogenic Differentiation Medium (PromoCell, C/N: C-28013) which is a medium for differentiation induction. Furthermore, for the cells as a negative control, D-MEM (10% FBS or 20% FBS) which is a culture medium was used for the medium exchange. The medium exchange was carried out every 2 to 4 days.
After 14 days from seeding, a 4% paraformaldehyde/phosphate buffer solution was added thereto at 500 μL/well, and the cells were left to stand for 2 hours or longer. After the immobilization, purified water was added thereto at 500 μL/well. 500 μL of an Alizarin Red solution (PG Research Co., Ltd., ARD-SET) was added to each well, which was left to stand at room temperature for 30 minutes. The Alizarin Red solution was removed, and washing was performed three times or more with purified water until the washing water became transparent. The water was completely removed, and the coating film was dried, and observed with a microscope to acquire an image. 500 μL of a calcifide nodule dissolution solution (PG Research Co., Ltd., ARD-SET) was added into the well and distributed for 10 minutes to elute the dye. 100 μL of the eluate was transferred to a 96-well plate and the absorbance at 450 nm was measured. […]

[2] = tested on: mouse fibroblast cell line NIH/3T3; assay: Inhibition of growth factor activity of VHH homodimer by FGFR inhibitor (fibroblasts); assay type: cell-based; details: 10 and 100 ng/ml test substance plus FGFR kinase inhibitor
Text: Promotion of Fibroblast Growth by VHH (Homodimer)” described above.
It was examined whether the cell growth activities of bFGF and the single-domain antibody were inhibited by NPV-BGJ398 which is an FGFR kinase inhibitor.

[3] = tested on: FGFR1-DIIDIII; assay: Binding activity by biolayer interference (BLI) to FGFR1-DIIDIII; parameters: species or system human; details: 1:1 binding model
Procedure: (§1) The FGFR1 extracellular domain has DII and DIII domains. Each of an FGFR1 extracellular domains (hereinafter may be abbreviated as “FGFR1-DIIDIII”, “FGFR1-DII”, or “FGFR1-DIII”) was expressed using AAVpro293T cells as follows, these domains were purified, and an affinity measurement test with VHH Clone #1 was performed by a biolayer interference (BLI) method.
(§2) The binding activities of FGFR1-DIIDIII, FGFR1-DII, and FGFR1-DIII to VHH Clone #1 were measured by a biolayer interference method (hereinafter sometimes abbreviated as “BLI”). In BLI, using Octet 384 (manufactured by Fortebio), VHH Clone #1 diluted with a kinetics buffer (0.05% Tween20-containing PBS, pH 7.4) was immobilized on an Anti-Penta-HIS (HIS1K, manufactured by Fortebio) sensor chip, and bound to FGFR1-DIIDIII, FGFR1-DII, and FGFR1-DIII, which had been adjusted from 100 nM in 2-fold serial dilutions, and the dissociation rate was measured.
(§3) In the preparation for measurement, a tip of the sensor chip was immersed in 200 μL of the kinetics buffer for 10 minutes in order to hydrate the sensor chip. […]
(§4) After completion of the measurements, the measured value of a Reference (only the kinetics buffer) was subtracted from the actual measurement value, and Global Fitting was performed using a 1:1 binding model using Octet software to calculate the binding activity (FIG. 22).

[4] = target: T1, FGFR1-DII (Homo sapiens, UniProt P11362); assay: Binding activity by biolayer interference (BLI) to FGFR1-DII; details: Octet, VHH immobilized
T1 construct: The FGFR1 extracellular domain has DII and DIII domains; made in house; host or cells: AAVpro293T cells
T1 sequence (P11362 158-246 limits assumed): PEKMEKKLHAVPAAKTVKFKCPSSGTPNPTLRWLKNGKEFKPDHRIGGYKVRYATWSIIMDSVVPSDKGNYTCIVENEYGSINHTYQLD
Procedure: as §1, §2, §3, §4

[5] = tested on: FGFR3-Fc; assay: SPR affinity of VHH (monomer) for FGFR3-Fc; assay type: binding, human; details: same manner as Example 5
Procedure: (§5) The binding activity of VHH Clone #1 or VHH Clone #2 immobilized on Series S Sensor Chip CAP (manufactured by Cytiva) with respect to FGFR1-Fc was measured using Biacore (registered trademark) T200 (manufactured by Cytiva). Measurement was performed by CAP Single-cycle Kinetics. The temperature was set to 25° C. As a running buffer, 10 mM HEPES (pH 7.4) (Cytiva) including HBS-EP+(150 mM NaCl, 0.5 mM EDTA, and 0.05% surfactant P20) was used. The measurement order for each run is as follows.
(§6) 2) Measurement of binding activity: The flow rate was set to 30 μL/mL, and VHH Clone #1 or VHH Clone #2 each diluted to 1.85 nM, 5.56 nM, 16.67 nM, or 50 nM, using a running buffer, was allowed to have an association time set to 120 seconds for binding and a dissociation time set to 600 seconds for interaction.
(§7) 3) Regeneration of sensor chip surface: The flow rate was set to 10 μL/mL, a solution in which Reaneration stock 1 and Regeneration stock 2 (manufactured by Cytiva) were mixed at the ratio of 3:1 was added thereto for 120 seconds to extract the immobilized VHH. Next, analysis was performed with a 1:1 binding model using Biacore T200 Evaluation (software version 2.0, manufactured by Cytiva), and the binding activity was calculated.
(§8) The binding activity of VHH Clone #1 to FGFR2-Fc, FGFR3-Fc, or FGFR4-Fc was measured in the same manner as in Example 5.

[6] = tested on: FGFR2-Fc; assay: SPR affinity of VHH (monomer) for FGFR2-Fc; assay type: binding, human; details: same manner as Example 5
Procedure: as §5, §6, §7, §8

[7] = target: T2, FGFR1-DIII (Homo sapiens, UniProt P11362); assay: Binding activity by biolayer interference (BLI) to FGFR1-DIII; details: 1:1 binding model
T2 construct: The FGFR1 extracellular domain has DII and DIII domains; made in house; host or cells: AAVpro293T cells
T2 sequence (P11362 255-357 limits assumed): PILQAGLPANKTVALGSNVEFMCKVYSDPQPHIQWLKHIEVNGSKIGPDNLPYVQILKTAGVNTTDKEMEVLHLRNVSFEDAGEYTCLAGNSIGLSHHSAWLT
Procedure: as §1, §2, §3, §4

Sequence of FGFR1-DIIDIII (P11362 158-357 limits assumed): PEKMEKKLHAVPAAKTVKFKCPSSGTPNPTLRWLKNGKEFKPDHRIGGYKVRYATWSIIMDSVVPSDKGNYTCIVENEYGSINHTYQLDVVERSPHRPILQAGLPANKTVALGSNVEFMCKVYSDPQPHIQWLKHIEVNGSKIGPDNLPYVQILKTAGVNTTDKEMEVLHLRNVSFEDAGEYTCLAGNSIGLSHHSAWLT

“FGF2: fibroblast growth factor (basic), human, recombinant (154aa), positive control; SEQ ID NO: 58 [reference compound]” was tested. Which “bone differentiation (Alizarin Red)” value [1] did it give?
The value was “Differentiation was similarly recognized”.

What about the “cell growth with addition of NPV-BGJ398” value [2] of the same molecule?
Its value is “suppressed cell growth”.

B1: VHH Clone #1: alpaca-derived VHH single-domain antibody (monomer) binding FGFR1, amino acid sequence SEQ ID NO: 17 (protein)
VHH: QLQLVESGGGSVQAGGSLRLSCAASRSLSRFNVWTWYRQAPVKQRELVASITKSGDTNYAESVKGRFIISRDDDKNTVYLQMNNLKSEDTGIYYCAGSYYSGSYLYPSPGGFSVWGQGTQVTVSS
modifications: VHH_Clone_#1
How did the “Koff” value [3] turn out when B1 was run?
The value was 0.000141 s⁻¹.

What about the “Kon” value [3] of the same molecule?
The value was 289000 M/s.

And the “KD (M)” value [4]?
Its value is “No Binding”.

What about the ka [5] of the same molecule?
The ka was 232000 M⁻¹ s⁻¹.

What about the kd [5] of the same molecule?
Its kd is 0.235 s⁻¹.

What about the ka [6] of the same molecule?
The ka was 484000 M⁻¹ s⁻¹.

And the kd [6]?
Its kd is 0.776 s⁻¹.

And the “Koff” value [7]?
Its value is 0.000351 s⁻¹.

What about the “Kon” value [7] of the same molecule?
The value was 298000 M/s.

B2: #1-L4-#1: dimer of VHH #1 with linker L4 (GSEGKSSGSGSESKST), SEQ ID NO: 23 (protein)
VHH: QLQLVESGGGSVQAGGSLRLSCAASRSLSRFNVWTWYRQAPVKQRELVASITKSGDTNYAESVKGRFIISRDDDKNTVYLQMNNLKSEDTGIYYCAGSYYSGSYLYPSPGGFSVWGQGTQVTVSSGSEGKSSGSGSESKSTQLQLVESGGGSVQAGGSLRLSCAASRSLSRFNVWTWYRQAPVKQRELVASITKSGDTNYAESVKGRFIISRDDDKNTVYLQMNNLKSEDTGIYYCAGSYYSGSYLYPSPGGFSVWGQGTQVTVSS
modifications: #1-L4-#1
B2 was tested. Which “bone differentiation (Alizarin Red)” value [1] did it give?
The value was “Differentiation was similarly recognized”.

And the “cell growth with addition of NPV-BGJ398” value [2]?
The value was “suppressed cell growth”.
